The values that follow come from patent US6428965 (Johns Hopkins, dated 2002).

By Kd is commonly meant the concentration at which binding is half-saturated. A lower Kd goes with a tighter complex.

Test [1] deals with T1, rat neuropilin (neuropilin-1), full length (rat, UniProt Q9QWJ9 22-922).
T1 construct: Expressed transiently on COS cells from pMT21-neuropilin
Put plainly: whole cell binding, Scatchard analysis, COS cells transiently expressing neuropilin. How it is done: Because Coll-1 elicits biological effects at sub-nanomolar concentrations (Luo et al., 1993), we predicted that a bona fide Sema III receptor should bind to Sema III with high affinity. To determine the affinity of Sema-AP for neuropilin, neuropilin was transiently expressed in COS cells, and whole cell binding analyses were performed two days later (FIG. 3A). For comparison, the affinity of Sema-AP for its receptor(s) present on NGF-dependent sensory neurons prepared from dissociated E14 DRG was also determined (FIG. 3B). […] These binding affinities are similar to those recently described for netrins and their receptors (Keino-Masu et al., 1996; Leonardo et al., 1997) and Eph receptors and their ligands (Cheng and Flanagan, 1994; Monschau et al., 1997), and they are consistent with a role for neuropilin in Sema III-mediated growth cone collapse and in repulsive guidance of DRG neurons during neurodevelopment.
COS cells were transfected with 2 μg of pMT21-neuropilin, an expression vector encoding neuropilin, or either no DNA or the empty pMT21 expression vector using Lipofectamine (BRL), recovered in growth media, and then grown for 48 hours prior to binding analysis. Dissociated DRG neurons were cultured from E14 DRGs. […] Quantitiative cell surface binding was done essentially as described (Flanagan and Leder, 1990).

Test [2] addresses Sema-AP binding sites / Sema III receptor(s) on NGF-dependent rat E14 DRG sensory neurons. The test is described as follows: whole cell binding, Scatchard analysis, dissociated rat E14 DRG neurons.
The target of test [3] is T2, myc-tagged soluble neuropilin extracellular domain (myc-neuropilin^ex) (rat, UniProt Q9QWJ9 22-855).
T2 construct: Expressed in COS cells and used as culture medium
T2 sequence: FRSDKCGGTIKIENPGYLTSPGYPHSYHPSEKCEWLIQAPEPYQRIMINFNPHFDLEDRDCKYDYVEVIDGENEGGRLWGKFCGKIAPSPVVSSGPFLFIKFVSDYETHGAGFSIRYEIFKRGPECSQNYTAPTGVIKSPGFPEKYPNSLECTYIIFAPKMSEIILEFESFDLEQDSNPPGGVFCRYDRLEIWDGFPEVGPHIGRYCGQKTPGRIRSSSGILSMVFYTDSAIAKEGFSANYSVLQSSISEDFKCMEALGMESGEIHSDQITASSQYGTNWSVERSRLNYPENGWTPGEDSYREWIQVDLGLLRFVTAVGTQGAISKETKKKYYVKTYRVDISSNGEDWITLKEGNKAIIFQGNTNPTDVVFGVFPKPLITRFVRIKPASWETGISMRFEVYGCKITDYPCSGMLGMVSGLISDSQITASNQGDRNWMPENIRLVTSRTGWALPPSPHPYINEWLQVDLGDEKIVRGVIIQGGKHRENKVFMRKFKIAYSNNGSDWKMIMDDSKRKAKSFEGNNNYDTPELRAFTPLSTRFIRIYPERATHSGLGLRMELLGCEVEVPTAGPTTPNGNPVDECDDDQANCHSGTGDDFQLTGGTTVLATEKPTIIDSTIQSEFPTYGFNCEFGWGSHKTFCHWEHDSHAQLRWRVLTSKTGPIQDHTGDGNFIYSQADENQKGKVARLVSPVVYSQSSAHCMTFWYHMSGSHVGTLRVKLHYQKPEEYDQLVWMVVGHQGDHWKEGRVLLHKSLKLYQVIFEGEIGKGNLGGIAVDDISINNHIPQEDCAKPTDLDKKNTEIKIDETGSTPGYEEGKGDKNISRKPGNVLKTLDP
Put plainly: co-immunoprecipitation with anti-myc antibody, AP activity. The protocol: Therefore, we next asked whether Sema-AP binds directly to neuropilin in a co-immunoprecipitation assay. For these experiments, an N-terminal myc-tagged neuropilin protein lacking the neuropilin transmembrane and intracellular domains (myc-neuropilin^ex) was used to assess whether the extracellular domain of neuropilin can directly interact with Sema III. Myc-neuropilin^ex was expressed in COS cells and the tissue culture medium was then incubated with either Sema-AP or SEAP alone. Upon precipitation of the myc-neuropilin^ex with a monoclonal antibody directed against the myc epitope, co-precipitation of Sema-AP was determined by the presence of AP activity in the immune complex (FIG. 1F). In contrast, no AP activity above background levels was detected in anti-myc immune complexes collected from samples in which myc-neuropilin was incubated with SEAP alone.
Co-precipitation of Sema-AP and the Secreted, Extracellular Domain of Neuropilin COS cell supernatant containing myc-neuropilin^ex, 293 EBNA cell supernatant containing SEAP, or 293 EBNA cell supernatant containing Sema-AP was filter-sterilized and concentrated. Samples containing equal amounts of control supernatants or supernatants containing myc-neuropilin^ex were mixed with samples containing either Sema-AP or SEAP (equal amounts of AP activity). These mixtures were incubated at room temperature for 2 hours. […]

Test [4] has as its target T1, rat neuropilin (neuropilin-1), full …. Put plainly: AP staining of transfected COS cells. The protocol:
FIGS. 1A to 1F. Sema-AP binds to neuropilin. COS cells were transfected with an expression vector encoding neuropilin (FIGS. 1A–1C) or the empty vector (FIG. 1D). After two days, cells were incubated with Sema-AP (FIG. 1A) or SEAP (FIG. 1B) and then processed for alkaline phosphatase activity, or cells were fixed and subjected to immunocytochemistry using anti-neuropilin IgG (FIGS. 1C and 1D). No neuropilin immunoreactivity was detected when COS cells expressing neuropilin were incubated with pre-immune IgG. (FIG. 1E) Anti-neuropilin immunoblot analysis of whole cell extracts prepared from COS cells that were transfected with the empty expression vector (lane 1) or an expression vector encoding neuropilin (lane 2). (FIG. 1F) Sema-AP binds directly to the extracellular domain of neuropilin. Either Sema-AP or SEAP was incubated with soluble myc-tagged neuropilin extracellular domain (myc-neuropilin^ex). Then, myc-neuropilin^ex was immunoprecipitated with an antibody directed against the myc epitope, and alkaline phosphatase activity in the immune complex was determined as described in the Examples. AP activity was measured as described in the Examples and is reported as OD$405$/second. Shown are the means +/− SEM of three independent experiments. Scale bar=25 μm.

B1: H-Sema III-alkaline phosphatase fusion protein (Sema-AP) (ligand, human, UniProt Q14563 21-771, looked up)
chain: NYQNGKNNVPRLKLSYKEMLESNNVITFNGLANSSSYHTFLLDEERSRLYVGAKDHIFSFDLVNIKDFQKIVWPVSYTRRDECKWAGKDILKECANFIKVLKAYNQTHLYACGTGAFHPICTYIEIGHHPEDNIFKLENSHFENGRGKSPYDPKLLTASLLIDGELYSGTAADFMGRDFAIFRTLGHHHPIRTEQHDSRWLNDPKFISAHLISESDNPEDDKVYFFFRENAIDGEHSGKATHARIGQICKNDFGGHRSLVNKWTTFLKARLICSVPGPNGIDTHFDELQDVFLMNFKDPKNPVVYGVFTTSSNIFKGSAVCMYSMSDVRRVFLGPYAHRDGPNYQWVPYQGRVPYPRPGTCPSKTFGGFDSTKDLPDDVITFARSHPAMYNPVFPMNNRPIVIKTDVNYQFTQIVVDRVDAEDGQYDVMFIGTDVGTVLKVVSIPKETWYDLEEVLLEEMTVFREPTAISAMELSTKQQQLYIGSTAGVAQLPLHRCDIYGKACAECCLARDPYCAWDGSACSRYFPTAKRRTRRQDIRNGDPLTHCSDLHHDNHHGHSPEERIIYGVENSSTFLECSPKSQRALVYWQFQRRNEERKEEIRVDDHIIRTDQGLLLRSLQQKDSGNYLCHAVEHGFIQTLLKVTLEVIDTEHLEELLHKDDDGDGSKTKEMSNSMTPSQKVWYRDFMQLINHPNLNTMDEFCEQVWKRDRKQRRQRPGHTPGNSNKWKHLQENKKGRNRRTHEFERAPRSV
notes: Made in 293 EBNA cells from pCEP4 and used as supernatant; also called Sema III-AP; Sema III-secreted placental alkaline phosphatase fusion protein; not shown: secreted placental alkaline phosphatase of vector pAPtag-1 (Flanagan and Leder, 1990), C-terminal to Sema III; limits an
Consider B1, for which the Kd in test [1] is around 1.5 nM. In test [2], this molecule returned a binding sites per cell (binding sites per cell) of 20000.

B2: secreted placental alkaline phosphatase (SEAP) (enzyme, UniProt P05187 23-511, looked up)
chain: IIPVEEENPDFWNREAAEALGAAKKLQPAQTAAKNLIIFLGDGMGVSTVTAARILKGQKKDKLGPEIPLAMDRFPYVALSKTYNVDKHVPDSGATATAYLCGVKGNFQTIGLSAAARFNQCNTTRGNEVISVMNRAKKAGKSVGVVTTTRVQHASPAGTYAHTVNRNWYSDADVPASARQEGCQDIATQLISNMDIDVILGGGRKYMFRMGTPDPEYPDDYSQGGTRLDGKNLVQEWLAKRQGARYVWNRTELMQASLDPSVTHLMGLFEPGDMKYEIHRDSTLDPSLMEMTEAALRLLSRNPRGFFLFVEGGRIDHGHHESRAYRALTETIMFDDAIERAGQLTSEEDTLSLVTADHSHVFSFGGYPLRGSSIFGLAPGKARDRKAYTVLLYGNGPGYVLKDGARPDVTESESGSPEYRQQSAVPLDEETHAGEDVAVFARGPQAHLVHGVQEQTFIAHVMAFAACLEPYTACDLAPPAGTTDAAHPG
notes: Control for the AP part of Sema-AP
As to B2, the binding result in test [3] and in test [4] was “no binding” each time.
